Test results: patent publication US9546211B2 (SINGH MOLECULAR MEDICINE, LLC, priority 2014, dated 2017)
Values joined by “and” are separate entries in the source; they are usually repeats but may differ in a detail not shown here. Equal entries are not always repeated.

Columns and labels:
TNF-alpha = TNF-alpha (Homo sapiens, UniProt P01375); test: Inhibition of TNF-alpha cytotoxicity against U937 cells; assay type: cell-based; settings: constant dose of TNF-alpha at EC50
MDA-MB-231 cells = test: MTT proliferation assay, MDA-MB-231; assay type: cell-based, human; settings: for Mean Absorbance (570 nM) ± S.E., Overall Mean: 4 experiments;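 on all read-outs here: human cancer cells grown to 90% confluence before treatment, treated groups compared against a vehicle control group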
PANC-1 cells = test: MTT proliferation assay, PANC-1; assay type: cell-based, human; settings: for Mean Absorbance (570 nM) ± S.E., Overall Mean: 3 experiments; for Mean Absorbance (570 nM) ± S.E.: single experiments
[1] = MDA-MB-231, day 3, 10.0 μg/ml, single experiments
[2] = MDA-MB-231, day 3, 100 μg/ml, single experiments
[3] = MDA-MB-231, day 3 post treatment, 0.5 μg/ml

Chain of TNF-alpha (P01375 77-233 limits assumed): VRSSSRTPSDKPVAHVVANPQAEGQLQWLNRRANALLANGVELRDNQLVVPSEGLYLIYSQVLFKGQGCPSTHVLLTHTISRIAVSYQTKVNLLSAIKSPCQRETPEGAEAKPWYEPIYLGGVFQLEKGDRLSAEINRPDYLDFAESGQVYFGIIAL

B1: anti-TNF-alpha VHH62: anti-TNF-alpha sdAb, SEQ ID NO. 47 (TNF_62, SEQ ID NO. 66) (protein)
VHH: QVQLVESGGGPVQAGETLRLSCTASGFTFAEADMGWYRQAPGHECELVSTITTEGITSEASSYYADSVRGRFTISRDNAKNMVYLQMNSLKPEDTAVYYCAPDPYAYSTYSDYCSWAQGTQGTLVTVSS
modifications: Camelid
inhibition of killing of U937 by TNF-alpha (TNF-alpha): inhibit killing

B2: anti-TNF-alpha VHH69: anti-TNF-alpha sdAb, SEQ ID NO. 46 (TNF_69, SEQ ID NO. 64) (protein)
VHH: EVQLVESGGGSVLAGGSLRLSCVASGFTSRYNYMAWFRQAPGKEREGVATIGTASGSADYYGSVKDRFTISQDNAKNTVYLQMNSLKPEDTAMYYCAARTYGTISLTPSDYRYWGQGTLVTVSS
modifications: Camelid
inhibition of killing of U937 by TNF-alpha (TNF-alpha): inhibit killing

B3: B.VHH14: anti-STAT3 single-domain antibody VHH14, SEQ ID NO. 4, bacterial production (protein)
VHH: QVQLVESGGGSVQAGGSLRLSCVASTYTGCMGWFRQAPGKEREGVAALSSRGFAGHYTDSVKGRFSISRDYVKNAVYLQMNTVKPEDAAMYYCAAREGWECGETWLDRTAGGHTYWGQGTLVTVSS
modifications: Camelid
notes: 4, bacterial production
% Inhibition (MDA-MB-231 cells; MDA-MB-231, 3 days, 10.0 μg/ml, single experiments): 23.1% and 20.0% and 38.5% and 23.3%
% Inhibition (MDA-MB-231 cells; MDA-MB-231, 3 days, 100 μg/ml, single experiments): 57.0% and 42.8% and 62.3% and 60.6%
% Inhibition (MDA-MB-231 cells; MDA-MB-231, 5 days, 0.5 μg/ml): 0%
% Inhibition (MDA-MB-231 cells; MDA-MB-231, 5 days, 1.0 μg/ml): 0%
Mean Absorbance (570 nM) ± S.E., Overall Mean (MDA-MB-231 cells; MDA-MB-231, day 3, 10.0 μg/ml): 0.504 ± 0.021
Mean Absorbance (570 nM) ± S.E. (MDA-MB-231 cells; [1]): 0.456 ± 0.048 and 0.499 ± 0.018 and 0.502 ± 0.048 and 0.559 ± 0.041
Mean Absorbance (570 nM) ± S.E., Overall Mean (MDA-MB-231 cells; MDA-MB-231, day 3, 100 μg/ml): 0.302 ± 0.043
Mean Absorbance (570 nM) ± S.E. (MDA-MB-231 cells; [2]): 0.255 ± 0.005 and 0.357 ± 0.019 and 0.308 ± 0.021 and 0.287 ± 0.021
Mean Absorbance (570 nM) ± S.E. (MDA-MB-231 cells; [3]): 0.666 ± 0.022
Mean Absorbance (570 nM) ± S.E., Overall Mean (MDA-MB-231 cells; MDA-MB-231, day 5, 10.0 μg/ml): 0.688 ± 0.131
Mean Absorbance (570 nM) ± S.E., Overall Mean (MDA-MB-231 cells; MDA-MB-231, day 5, 100 μg/ml): 0.475 ± 0.0690

B4: H.VHH14: anti-STAT3 sdAb VHH14, SEQ ID NO. 4; H. not defined, presumably mammalian production (protein)
VHH: B3 VHH
modifications: Camelid
Mean Absorbance (570 nM) ± S.E., Overall Mean (PANC-1 cells; PANC-1, day 3, 10.0 μg/ml): 1.089 ± 0.085
Mean Absorbance (570 nM) ± S.E. (PANC-1 cells; PANC-1, day 3, 10.0 μg/ml): 0.920 ± 0.133 and 1.183 ± 0.114 and 1.163 ± 0.044
Mean Absorbance (570 nM) ± S.E., Overall Mean (PANC-1 cells; PANC-1, day 3, 100 μg/ml): 0.906 ± 0.054
Mean Absorbance (570 nM) ± S.E. (PANC-1 cells; PANC-1, day 3, 100 μg/ml): 0.808 ± 0.239 and 0.993 ± 0.088 and 0.916 ± 0.088
Mean Absorbance (570 nM) ± S.E., Overall Mean (PANC-1 cells; PANC-1, day 5, 10.0 μg/ml): 1.368 ± 0.247
Mean Absorbance (570 nM) ± S.E. (PANC-1 cells; PANC-1, day 5, 10.0 μg/ml): 1.859 ± 0.033 and 1.165 ± 0.015 and 1.081 ± 0.103
Mean Absorbance (570 nM) ± S.E., Overall Mean (PANC-1 cells; PANC-1, day 5, 100 μg/ml): 0.754 ± 0.333
% Inhibition (MDA-MB-231 cells; MDA-MB-231, 5 days, 0.5 μg/ml): 9.5%
% Inhibition (MDA-MB-231 cells; MDA-MB-231, 5 days, 1.0 μg/ml): 4.9%
% Inhibition (MDA-MB-231 cells; MDA-MB-231, 5 days, 10.0 μg/ml, single experiments): 18.2%
% Inhibition (MDA-MB-231 cells; MDA-MB-231, 5 days, 100 μg/ml, single experiments): 18.9%
Mean Absorbance (570 nM) ± S.E. (MDA-MB-231 cells; [1]): 0.588 ± 0.020
Mean Absorbance (570 nM) ± S.E. (MDA-MB-231 cells; [2]): 0.416 ± 0.030
Mean Absorbance (570 nM) ± S.E. (MDA-MB-231 cells; [3]): 0.485 ± 0.040
Mean Absorbance (570 nM) ± S.E. (MDA-MB-231 cells; MDA-MB-231, day 5, 10.0 μg/ml, single experiments): 0.804 ± 0.015
Mean Absorbance (570 nM) ± S.E. (MDA-MB-231 cells; MDA-MB-231, day 5, 100 μg/ml, single experiments): 0.797 ± 0.010
